According to patent publication US20240294644A1 (BLUEFIN BIOMEDICINE, published 2024):
Numbering of substitutions follows the chain as printed.

T1: human VTCN1 expressed on cells (293-VTCN1 cells; SKBR3, MX-1 and ZR-75-1 cells that express it naturally) (human, UniProt Q7Z7D3 25-282)
T1 construct: The cDNA was bought from Origene
T1 sequence: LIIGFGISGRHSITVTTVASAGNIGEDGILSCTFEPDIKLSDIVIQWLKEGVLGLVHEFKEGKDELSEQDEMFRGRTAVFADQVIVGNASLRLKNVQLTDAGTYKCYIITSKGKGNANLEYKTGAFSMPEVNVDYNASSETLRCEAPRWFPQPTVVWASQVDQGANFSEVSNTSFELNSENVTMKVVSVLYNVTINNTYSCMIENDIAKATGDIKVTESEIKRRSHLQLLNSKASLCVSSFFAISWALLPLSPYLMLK

T2: cynomolgus monkey VTCN1 protein (cynomolgus monkey, UniProt A0A2K5U6P5 25-259)
T2 construct: The construct and its tag are not described; also called cyno VTCN1
T2 sequence: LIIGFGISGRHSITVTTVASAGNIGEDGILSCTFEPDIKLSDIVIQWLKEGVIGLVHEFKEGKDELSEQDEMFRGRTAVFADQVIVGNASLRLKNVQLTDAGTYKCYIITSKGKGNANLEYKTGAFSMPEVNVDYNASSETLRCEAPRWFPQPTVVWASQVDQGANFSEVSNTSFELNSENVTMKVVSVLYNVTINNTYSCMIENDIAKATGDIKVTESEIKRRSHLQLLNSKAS

T3: recombinant human VTCN1-his protein (human, UniProt Q7Z7D3 25-259, limits assumed)
T3 construct: also called human VTCN1 protein; recombinant VTCN1
T3 sequence: T2 sequence with I53L

T4: cynomolgus monkey VTCN1 expressed on 293 cells (cynomolgus monkey, UniProt A0A2K5U6P5 25-282)
T4 construct: whole, on cells
T4 sequence: T1 sequence with L53I, F242L, S252A

T5: mouse VTCN1 expressed on 293 cells (mouse, UniProt Q7TSP5 25-257)
T5 construct: whole, on cells
T5 sequence (looked up): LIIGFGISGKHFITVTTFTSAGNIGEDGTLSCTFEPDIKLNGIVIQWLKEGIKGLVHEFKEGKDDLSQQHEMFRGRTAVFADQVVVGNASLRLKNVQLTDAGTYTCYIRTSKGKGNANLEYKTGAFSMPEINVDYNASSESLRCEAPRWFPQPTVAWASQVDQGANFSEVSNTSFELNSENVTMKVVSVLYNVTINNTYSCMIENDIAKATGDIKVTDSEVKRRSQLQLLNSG

T6: mouse VTCN1 protein (mouse, UniProt Q7TSP5 25-257, limits assumed)
T6 construct: The construct and its tag are not described
T6 sequence (looked up): T5 sequence (looked up)

B1: 7G7_44C6 (antibody, V domains shown)
VH: QVQLQESGPGLVKPSETLSLTCTVSGGSISHYYWSWIRQPPGKGLEWIGYIYYSGPTNYNPSLKSRVTISVDTSKNQFSLKLSSVTAADTAVYYCARTYYYGSGSFPDAFDIWGQGTMVTVSS
VL: KIVLTQSPATLSLSPGERATLSCRASQSVSSYLAWYQQTPGQAPRLLIYDASNRATGIPARFSVSGSGTDFTLTISSLEPEDFAVYYCQQRSSWPLTFGGGTKLEIK
notes: Fully human antibody
B2: 12B5_44B1 (antibody, V domains shown)
VH: QVQLVQSGAEVKKPGSSMKVSCKASGDTFSSYAISWVRQAPGQGLEWMAGIIPVFGTAHNAQKFQGRVTITADKSTSTAYMELSSLRSEDTAVYYCTRGGPYFDYWGQGTLVTVSS
VL: EIVMTQSPATLSVSPGERAALSCRASQSVSSNLAWYQQKPGQAPRLLIYGVSTRATGIPDRFNGSGSGTEFTLTISSLQSEDFGAYYCQQYKKWPFIFGPGTKLEIK
notes: Fully human antibody
B3: 14D6_60B5 (antibody, V domains shown)
VH: QVQLVHSGAEVKRPGSSVKVSCKASGGTFSSYAISWVRQAPGQGLEWMGGIIPIFGIANYAQKFQGRVTIIADKSTRTAYMELSSLRSEDTAVYYCARGGPYFDYWGQGILVTVSS
VL: B2 VL with A20T, V51A, D60A, N63S, G84A, A85V, K92N, I97T, L104V, E105D
notes: Fully human antibody
B4: 16H12_60B4 (antibody, V domains shown)
VH: B3 VH with L4V, H6Q, R13K, G27D, S31N, A58T, A97S
VL: B2 VL with A20T, V51A, D60A, N63S, G84A, A85V, I97T, L104V, E105D
notes: Fully human antibody
B5: 4C7_63A1 (antibody, V domains shown)
VH: QVQLQESGPGLVKPSGTLSLTCAVSGGSISSSNWWSWVRQPPGKGLEAIGEIYHSGNTNYNPSLKSRVTISVDKSKNQFSLKLSSVTAADTAIYYCARDGYSSGWYWGYFDYWGQGTLVTVSS
VL: EIVMTQSPATLSVSPGERATLSCRASQSVNSNLAWYQQKPGQAPWLLIYGASTRATGIPARFSGSGSGTEFTLTISSLQSEDFAVYYCQQYNHWPYTFGQGTKLEIK
notes: Fully human antibody
B6: 13H9_44D2 (antibody, V domains shown)
VH: QVQLQESGPGLVKPSETLSLTCTVSGGSISSYYWSWIRQPPGKGLEWIGYIYYSGSTNNNPSLKSRVTISVDTSKNQFSLKLISVTAADTAVYYCARVYNNYDWGFDYWGQGTLVTVSS
VL: B5 VL with N30S, W45R, S76R, N92H, H93N, Y96L, Q100G
notes: Fully human antibody
B7: 10D1 (antibody, V domains shown)
VH: QVQLQESGPELVKPGASVKLSCKASGYIFTDYTIHWLKQSPGQGLEWIGWIYPGSGHTHYNDKFKGKATMTADKSSTTAYMQLSSLTSEDSAVFFCARGGESITTVFPLAYWGQGTLVTVSA
VL: DIVMSQSPSSLAVSVGEKVTMSCKSSQSLLYSSDQKNYLAWYQQKPGQSPKLLIYWASTWESGVPDRFIGSGSGTDFTLTVSSVKAEDLAVYYCHQYYSYPPTFGAGTKLEIK
notes: Recombinant mouse antibody made in CHO cells
B8: 5A12 (antibody, V domains shown)
VH: QVQLQQSGPGLVQPSQSLSITCTVSGFSLTSYGVQWVRQSPGKGLEWLGVIWSSGSTDYNAAFISRLSINKDNSKSQVFFKMNSLQPDDTAIYYCARDITTIVEGFAYWGQGTLVTVSA
VL: IIVMTQSPKSMSMSVGERVTLSCKASENVGTYVSWYQQKPEQSPKLLIYGASNRYTGVPDRFTGSGSATDFTLTISSVQAEDLADYHCGQSYSYPFTFGSGTKLEIK
notes: as for B7
B9: 6D9 (antibody, mouse IgG2a, V domains shown)
VH: B8 VH with V2I, V37I, I64L, I69F, N70S, K81Q, P87A, T90S, I99V, Y108H
VL: B8 VL with I1N, N28K, A80V, S91T
notes: also called 6D9-mIgG2a; murine VTCN1 antibody 6D9
B10: hu6D9_57A5 (antibody, V domains shown)
VH: QVQLVESGGGVVQPGRSLRLSCAVSGFSLTSYGVQWVRQAPGKGLEWLAVIWSSGSTDYNAAFLSRLTISKDNSKNTVYFQMNSLRAEDTAVYYCARDVTTIVEGFAHWGQGTLVTVSS
VL: DIQMTQSPSSLSASVGDRVTITCKASEKVGTYVSWYQQKPGKAPKLLIYGASNRYTGVPSRFSGSGSGTDFTLTISSLQPEDFATYYCGQTYSYPFTFGQGTKLEIK
notes: Humanized 6D9
B11: hu6D9_57A3 (antibody, V domains shown)
VH: B10 VH with A49G
VL: B10 VL
notes: Humanized 6D9
B12: hu6D9_57A4 (antibody, V domains shown)
VH: B10 VH with G9P, N76S
VL: B10 VL
notes: Humanized 6D9
B13: hu6D9_66B1 (antibody, V domains shown)
VH: B10 VH with S28T, L29F, T30S, A49G
VL: B10 VL
notes: Humanized 6D9
B14: hu6D9_66C2 (antibody, V domains shown)
VH: B10 VH with Q1E, V11L, R16G, A49G, N73T
VL: B10 VL with G66R, L104V
notes: Humanized 6D9

What follows are binders tested against T1, human VTCN1 expressed on cells … (assay: flow cytometry, antibody titration on SKBR3 cells (endogenous VTCN1)).

B1 and B2 are within 1.5-fold of each other in EC50: 36.8 nM for the first, 35.5 nM for the second.

Compared with B3, B4 is 13-fold lower in EC50: 51.4 nM for the first, 4 nM for the second. The second is the more potent here.

Going from B5 to B6, the EC50 falls from 4.4 nM to 1.9 nM (2.3-fold).

The binders below were run against T2, cynomolgus monkey VTCN1 protein (assay: BLI (OCTET Red), antibody on Protein A biosensor, cyno VTCN1).

First: B7
Second: B8
The Kd of the first is 12-fold lower: 1 nM for the first, 12 nM for the second. The first binds more tightly here.

With B9 the Kd was 7 nM.

These binders were tested against T3, recombinant human VTCN1-his protein (assay: BLI (OCTET Red), antibody on Protein A biosensor, recombinant VTCN1-his in solution).

B7 and B8 are the same in Kd: 4 nM for the first, 4 nM for the second.

Binder B9 has a Kd of 2 nM.

Each binder was assayed against T1, human VTCN1 expressed on cells … (assay: flow cytometry of serially diluted antibody on SKBR3 cells (natural VTCN1), dye-labelled secondary antibody, MFI).

For B10, the “EC50 (read off the curve)” value was ~6 nM.

What follows are binders tested against T2, cynomolgus monkey VTCN1 protein (assay: BLI (OCTET), cynomolgus monkey VTCN1 protein).

Compared with B2, B3 is 2.5-fold higher in Kd: 2 nM for the first, 5 nM for the second. The first binds more tightly here.

Compared with B4, B5 is 47-fold higher in Kd: 1 nM for the first, 47 nM for the second.

The binders below were run against T4, cynomolgus monkey VTCN1 expressed on … (assay: flow cytometry of serially diluted antibody on 293-cynoVTCN1 cells, dye-labelled secondary antibody, MFI).

B10 was tested, and the “EC50 (read off the curve)” value was ~2 nM.

These binders were tested against T5, mouse VTCN1 expressed on 293 cells (assay: flow cytometry, antibody titration on 293-muVTCN1 cells).

Going from B1 to B2, the EC50 falls from 45 nM to 28.5 nM (1.6-fold). The second is the more potent here.

First: B3
Second: B4
The EC50 of the first is 2.4-fold higher: 11.4 nM for the first, 4.8 nM for the second.

Compared with B5, B6 is 1.9-fold lower in EC50: 3.5 nM for the first, 1.8 nM for the second. The second is the more potent here.

Each binder was assayed against T6, mouse VTCN1 protein (assay: BLI (OCTET), mouse VTCN1 protein).

B2 and B3 are within 1.5-fold of each other in Kd: 38 nM for the first, 56 nM for the second.

First: B4
Second: B5
The Kd of the first is 1.6-fold lower: 27 nM for the first, 44 nM for the second. The first binds more tightly here.

B6 was tested, and the Kd was 268 nM.

These binders were tested against T1, human VTCN1 expressed on cells … (assay: flow cytometry, antibody titration on 293-huVTCN1 cells).

Going from B1 to B2, the EC50 rises from 2.2 nM to 9 nM (4.1-fold).

First: B3
Second: B4
The EC50 of the first is 2.7-fold higher: 4.6 nM for the first, 1.7 nM for the second. The second is the more potent here.

Going from B5 to B6, the EC50 falls from 2.1 nM to 1.2 nM (1.8-fold). The second is the more potent here.

These binders were tested against T4, cynomolgus monkey VTCN1 expressed on … (assay: flow cytometry, antibody titration on 293-cynoVTCN1 cells).

Compared with B2, B3 is 1.8-fold lower in EC50: 9 nM for the first, 5.1 nM for the second. The second is the more potent here.

B4 and B5 are within 1.5-fold of each other in EC50: 2.1 nM for the first, 1.7 nM for the second.

The binders below were run against T3, recombinant human VTCN1-his protein (assay: BLI (OCTET), human VTCN1 protein).

Going from B1 to B2, the Kd falls from 192 nM to 2 nM (96-fold).

First: B3
Second: B4
The Kd of the first is 7.1-fold higher: 5 nM for the first, 0.7 nM for the second.

Going from B5 to B6, the Kd rises from 49 nM to 128 nM (2.6-fold).

Target: T3, recombinant human VTCN1-his protein
Assay: BLI (OCTET), human VTCN1 protein
Remark: another data set of the same source

B11 and B12 are within 1.5-fold of each other in Kd: 28 nM for the first, 36 nM for the second.

Going from B13 to B14, the Kd rises from 27 nM to 44 nM (1.6-fold).

B10 showed a Kd of 36 nM.

Each binder was assayed against T5, mouse VTCN1 expressed on 293 cells (assay: flow cytometry of serially diluted antibody on 293-mouseVTCN1 cells, dye-labelled secondary antibody, MFI).

B10: binds.
